This is an account of results in PMC9076600, “Ultrasensitive detection of Staphylococcal enterotoxin B in milk based on target-triggered assembly of the flower like nucleic acid nanostructure†”.

Experiment in all cases: Binding buffer not stated; […] (50 uM) […]
In one data set the target is OVA (UniProt P01012 2-386).
The target of data set [1] is Staphylococcal enterotoxin A (SEA) (UniProt P0A0L2 25-257).
The target in data set [2] is Staphylococcal enterotoxin B (SEB) (UniProt P01552 28-266).
Chain of Staphylococcal enterotoxin B (SEB) (P01552 28-266): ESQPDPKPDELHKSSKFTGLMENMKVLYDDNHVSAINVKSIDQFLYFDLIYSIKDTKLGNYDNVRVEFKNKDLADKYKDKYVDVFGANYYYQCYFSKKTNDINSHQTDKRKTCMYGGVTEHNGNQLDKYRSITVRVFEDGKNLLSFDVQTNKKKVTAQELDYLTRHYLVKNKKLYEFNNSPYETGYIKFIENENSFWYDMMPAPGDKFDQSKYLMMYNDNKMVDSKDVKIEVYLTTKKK

Chain of Staphylococcal enterotoxin A (SEA) (P0A0L2 25-257): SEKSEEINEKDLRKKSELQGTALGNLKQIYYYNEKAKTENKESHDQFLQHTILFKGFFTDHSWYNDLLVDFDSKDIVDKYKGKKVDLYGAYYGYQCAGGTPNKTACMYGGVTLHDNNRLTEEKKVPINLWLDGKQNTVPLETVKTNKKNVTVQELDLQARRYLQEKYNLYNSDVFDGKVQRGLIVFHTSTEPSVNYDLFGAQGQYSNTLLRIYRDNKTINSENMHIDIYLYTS
Chain of OVA (P01012 2-386): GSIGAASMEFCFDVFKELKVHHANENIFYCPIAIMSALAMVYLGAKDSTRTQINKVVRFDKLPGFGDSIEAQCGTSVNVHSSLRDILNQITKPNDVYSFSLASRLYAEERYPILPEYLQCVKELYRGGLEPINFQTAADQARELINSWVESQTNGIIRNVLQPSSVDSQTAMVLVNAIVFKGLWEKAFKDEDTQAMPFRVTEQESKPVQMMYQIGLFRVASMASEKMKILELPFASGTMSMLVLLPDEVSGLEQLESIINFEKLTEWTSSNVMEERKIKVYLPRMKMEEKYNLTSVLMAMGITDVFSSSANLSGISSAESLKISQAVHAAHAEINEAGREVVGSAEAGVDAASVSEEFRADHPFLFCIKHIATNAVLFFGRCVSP

B1: SEB aptamer (ssDNA)
DNA: GGTATTGAGGGTCGCATCCACTGGTCGTTGTCTGTTGTCTGTTATGTTGTTTCGTGATGGCTCTAACTCTCCTCT
For the molecule B1, the binding result in the data set with OVA is listed as “no binding”; in data set [1] it was “no binding”; in data set [2], “binds”.
